Ends that are not written are not given here. * marks the point of attachment. FITC = O=C1OC2(c3ccc(O)cc3Oc3cc(O)ccc32)c2ccc(NC(=S)*)cc21; Acp = not defined here
Key:
[1] = tested on: MCF7 and HSC-T6 cells; experiment: Comparison of penetration efficiency of different CPPs; format: cell-based, human, rat; conditions: Supplementary Figure S2D
Procedure: (§1) All types of cells were suspended in 0.5 mL media and seeded at a density of 1.5 × 10^5 cells/well on a 24-well plate for 24 h. After washing with PBS twice, the indicated cells were incubated with indicated concentrations of FITC-CPP-Dot1l, FITC-NCO peptides, or purified protein in 0.5 mL serum-free media/well for 1 h. After incubation, cells were rinsed three times in PBS and then imaged by fluorescence microscopy (Nikon, Tokyo, Japan). To evaluate the cellular uptake efficiency of indicated treatment, the cellular uptake of indicated concentration of CPP was quantified with multimode spectrophotometry (Tecan, Mannedorf, Switzerland). The incubation and wash procedure were the same as above. Cells were then lysed with 0.3 mL/well lysing buffer (0.1 M NaOH) for 10 min and centrifuged at 14,000 rpm for 5 min. The fluorescence intensity in the supernatant was read using Multimode spectrophotometry (Tecan, Mannedorf, Switzerland) at 485 nm excitation and emission at 535 nm. Protein concentration of supernatant was examined by the Bradford protein assay kit following the manufacturer’s recommendation. The fluorescence of cellular uptake is expressed as fluorescence intensity per mg of total cellular protein. Experiments indicated in the text were repeated at least three times.

[2] = tested on: MCF7 cells; format: cell-based, human
Procedure: as §1

[3] = tested on: HSC-T6 cells; experiment: Lactate dehydrogenase leakage assay; format: cell-based, rat; conditions: HSC-T6, 2.5-10 µM, 1 h, 0.1% TritonX-100 positive control, n = 3, p > 0.05 vs NC
Procedure: (§2) Lactate dehydrogenase (LDH) assay was conducted to measure the release of lactate dehydrogenase from damaged cells. Cells were seeded at a density of 1.5 × 10^5 cells/well to 24-well plates for overnight culture and peptides at indicated concentrations were added as described above. After 1 h incubation, 50 μL of cell-free supernatant were collected and added to each well, including controls and cell-free wells filled with 50 μL of LDH assay buffer. Reaction was conducted at room temperature (RT) for 10 min according to the manufacturer’s recommendations and the Optical Density (OD) was read in a Multiskan Spectrum (Thermo Fisher Scientific) plate reader at 570 nm.

[4] = Flow cytometry analysis of cell cycle and cell apoptosis; format: cell-based; conditions: 10 μM peptide
Procedure: Cells and Dot1l peptide (10 μM), following the same method as described before, were plated with treatment in a six-well plate format. Cells were then harvested and pelleted in washing steps with PBS three times by centrifuging for 5 min at 1023 rpm. The supernatant was removed, and cells were resuspended in PBS. Cells were then fixed in 70% cold ethanol in PBS for 30 min. After washing three times with PBS, the fixed cells were stained with 0.5 mL PI/RNase A solution or with the Annexin-V/PI Apoptosis Detection Kit (Elabscience, Wuhan, China), following the recommended methods. Quantification of cell cycle states or cell apoptosis was acquired by fluorescence of each sample in BD FACSVerse™ flow cytometer.

[5] = tested on: MCF7 cells; experiment: Uptake mechanism: temperature and endocytosis inhibitors; format: cell-based, human
Procedure: as §1
The uptake mechanism of Dot1l in MCF7 cells was examined through endocytosis inhibitors. Peptide incubation at indicated different temperatures was measured to investigate the influence of temperature on peptide internalization (physical means of inhibition of endocytosis). […] The uptake efficiency was detected using the same protocol as the one shown above.

[6] = tested on: red blood cells (RBC); experiment: Hemolysis assay; format: cell-based; conditions: 2.5-10 µM, 2 h, absorbance 450 nm, 0.1% Triton X-100 positive control, n = 3, p > 0.05 vs NC
Procedure: To examine the membrane integrity, red blood cells (RBC) were used to conduct hemolytic analysis. After separation of RBCs by centrifugation for 10 min at 500 rpm, RBCs were collected and carefully washed with PBS. A 20% v/v RBC suspension was used for further experiments. In a typical experiment, 25 μL of RBC suspension were added to 225 μL peptide dilutions at different concentrations. Following 2 h of incubation, samples were centrifuged (500 rpm, 5 min) to discard cells and the membrane fragment. Supernatant samples (50-μL aliquots) were transferred to a clear 96-well plate and hemoglobin absorbance was read at 450 nm. Experimental design contains negative controls and positive controls (RBCs treated with 0.1% Triton X-100).

[7] = tested on: MCF7, B16, HSC-T6, Caski, and HepG2; experiment: Cellular uptake of FITC-labeled Dot1l peptide in different cell lines; format: cell-based, human, mouse, rat
Procedure: as §1

[8] = tested on: HSC-T6 cells; experiment: MTT cytotoxicity assay; format: cell-based, rat; conditions: HSC-T6, range of peptide concentrations, 24 h and 48 h, n = 3, p > 0.05
Procedure: (§3) HSC-T6 and MCF7 cells were seeded at a density of 8000 cells/well in 96-well culture plates overnight before incubation. The cells were washed with PBS and were treated with Dot1l or Dot1l/pDNA complexes of different concentrations at the indicated times. After rinsing with PBS, 20 μL of 5 mg/mL MTT in PBS solution were added to 80 μL of serum-free media and incubated for 4 h. After that, the culture medium was discarded and 150 μL of dimethyl sulfoxide (DMSO) were added into each well to dissolve the formazan crystals. The absorbance of DMSO-dissolved solution was read in a Multiskan Spectrum (Thermo Fisher Scientific, Waltham, MA, USA) reader at 490 nm.

[9] = tested on: MCF7 cells; experiment: MTT cytotoxicity assay; format: cell-based, human; conditions: MCF7, range of peptide concentrations, 24 h and 48 h, n = 3, p > 0.05
Procedure: as §3

[10] = tested on: MCF7 cells; experiment: Lactate dehydrogenase leakage assay; format: cell-based, human; conditions: MCF7, different concentrations, 1 h; Supplementary Figure S4A
Procedure: as §2

For “FITC-(Acp)-KARKKKLNKKGRKMAGRKRGRPKK ({FITC-Acp}-KARKKKLNKKGRKMAGRKRGRPKK; reading uncertain) [Dot1l, FITC-labeled 24-residue arginine-rich cell-penetrating peptide derived from human Dot1l protein]”, the “Penetration efficiency compared with other CPPs” value [1] was “weaker than hPP10, but significantly higher than that of TAT and MT23”, the “Fluorescence signal after trypan blue quenching of cell periphery signal” value [2] was “the fluorescence signal persisted” and the “Intracellular fluorescence signal with 5% DMSO pretreatment” value [2] was “highly increased”. For the same substance, the “Penetration efficiency with longer incubation time” value [2] was “not promoted”, the “Membrane disturbance (LDH release)” value [3] was “no membrane disturbance” and the “Cell apoptosis, control vs peptide treatment” value ([4]; Annexin-V/PI) was “did not show significant differences”. For the same substance, the “Cell cycle, control vs peptide treatment” value ([4]; PI/RNase A staining) was “did not show significant differences”, the “Internalization with wartmannin compared with control” value ([5]; MCF7, 5 μM wartmannin (PI-3 kinase blocking agent)) was “no significant differences” and the “Internalization with sodium azide” value ([5]; MCF7, 40 µM sodium azide (oxidative phosphorylation inhibitor)) was “not blocked”. For the same substance, the Uptake with heparin ([5]; MCF7, 50 μg/mL heparin (HSPG competitor)) was “could not block Dot1l uptake efficiently”, the “Internalization with MβCD compared with control” value ([5]; MCF7, 5 mM MβCD (lipid raft-mediated endocytosis inhibitor)) was “no significant differences” and the “Internalization with ammonium chloride” value ([5]; MCF7, 50 mM ammonium chloride (anti-acidification agent of endocytic vesicles)) was “not blocked”. The “Internalization with hyperosmotic sucrose compared with control” value ([5]; MCF7, 450 mM sucrose (clathrin-dependent endocytosis inhibitor)) was “no significant differences”, the “Fluorescence intensity at 37 °C compared with 4 °C” value ([5]; MCF7, means ± SEM (n = 3)) was “no apparent differences” and the “Fluorescence intensity at 37 °C compared with 25 °C” value ([5]; MCF7, means ± SEM (n = 3)) was “significantly higher”. The “Internalization in the presence of serum containing incubation medium” value ([5]; MCF7, serum (10% FBS)) was “blocked”, the “Membrane disturbance (hemolysis)” value [6] was “no membrane disturbance” and the “Penetration in different cell lines after 5% DMSO pretreatment” value ([7]; 5% DMSO pretreatment, Supplementary Figure S1C) was “significantly increased”. For the same substance, the “Penetration in different cell lines” value ([7]; MCF7, B16, HSC-T6, Caski, HepG2, non-DMSO pretreatment condition) was “could penetrate into all different cell lines efficiently without apparent cell line specificity”, the “Inhibition of cell growth (MTT)” value [8] was “no significant inhibition” and the “Inhibition of cell growth (MTT)” value [9] was “no significant inhibition”. For the same substance, the “Membrane disturbance (LDH release)” value [10] was “no membrane disturbance”.

Reference: paper PMC7072583, “Intracellular Delivery of DNA and Protein by a Novel Cell-Permeable Peptide Derived from DOT1L” (Biomolecules, 2020)
